In the data set the test system is MS2 coat protein. The data set is described as follows: apparent KD of MS2 coat protein; designed switch direction (-1 OFF switch, 1 ON switch): 1; higher = weaker reporter binding. The essentials:
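The reported apparent KD is a per-design median over clusters, from curve fits of normalised cluster fluorescence. Protein titrations used SNAP-549-labelled MS2 coat protein, doubled from 0.7 or 1.5 nM to 3 µM, in Tris-HCl pH 7.5 buffer with KCl, MgCl2, BSA, DTT, tRNA and Tween-20, with no input, 200 uM small-molecule ligand, or an oligonucleotide input. The RNA switches were transcribed on Illumina chips by stalled E. coli RNA polymerase.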

[1] abbreviates: input ligand: microRNA oligo, concentration not stated.

Turning to “AGAGCCGGCACUGAGGAUAUUCAUAUUAAAACAUGAGGAUCACCCAUGUAGGCCAGAAGGCCUUGGGAGAAGGCAGGUCGGCUCU [Mat - Same State 2 - Mod of UCT - D61] (Eterna round: R96, puzzle: Same State 2)”, the “apparent KD of MS2 coat protein” value reads like this: (input ligand: FMN 200 uM) 18.7 nM; under setting [1], 201 nM; (input ligand: none) 366 nM.

As to “AGAGCCGGCACUGAGGAUAUUCAUAUUAAAACAUGAGGAUCACCCAUGUAGGCCAGAAGGCCUUGGGAGAAGGCAGGUCGGCUCU [Mat - Same State 2 - Mod of UCT - D61] (puzzle: Same State 2)”, the “apparent KD of MS2 coat protein” value is, setting by setting: (Eterna round: R95, input ligand: FMN 200 uM) 22.3 nM; (Eterna round: R95, input ligand: microRNA oligo, concentration not stated) 211 nM; (Eterna round: R95, input ligand: none) 507 nM.

“AGAUCAUGACGAGGAUAUGGUACAUGAGGAUCACCCAUGUAUGUACCAUAACGCGUACGACGAAACCAGAAGGCGUCGUGGUCA [JL SSNG2 1.08] (Eterna round: R96, puzzle: Same State NG 2)”: the “apparent KD of MS2 coat protein” value was 11.7 nM (input ligand: FMN 200 uM), 14.8 nM under setting [1] and 27 nM (input ligand: none).

For the sequence “AGAUGUUAAUUAGGAUAUGGACACAUGAGGAUCACCCAUGUAACGAAGAUACGAUGUGGUCAAGUCUAGAAGGGAUAGCUAACA [SameState NG2 #75] (Eterna round: R96, puzzle: Same State NG 2)”, the “apparent KD of MS2 coat protein” value runs as follows: (input ligand: FMN 200 uM) 39.9 nM; under setting [1], 27.3 nM; (input ligand: none) 39 nM.

Take “AGAUGUUAAUUAGGAUAUGGGCACAUGAGGAUCACCCAUGUAUUUUCGAUGCUAUGUGGAGACGUCUAGAAGGGAUGGCUAACA [SameState NG2 #87] (Eterna round: R96, puzzle: Same State NG 2)”: the “apparent KD of MS2 coat protein” value by setting is: (input ligand: FMN 200 uM) 198 nM; under setting [1], 137 nM; (input ligand: none) 142 nM.

Take “AGCACGGGAUUGGAGGAUAUGUUGUUUGCAACAUGAGGAUCACCCAUGUCUGAGGCUGAAAAGCAGCAGAAGGCCGAUACAACCA [SS2-1.2] (Eterna round: R96, puzzle: Same State 2)”: the “apparent KD of MS2 coat protein” value (input ligand: FMN 200 uM) was 60.1 nM, the “apparent KD of MS2 coat protein” value under setting [1] was determined as 154 nM and the “apparent KD of MS2 coat protein” value (input ligand: none) is 198 nM.

With “AGCGAACAUGAGGAUCACCCAUGUAGACCGCGUGUGAUAACACAGGAUAUCAAAGGAAGAAGGAGUGAGAAGGGUGGGAAGGAG [Default title] (Eterna round: R96, puzzle: Same State NG 3)”, the “apparent KD of MS2 coat protein” value stood at 93.6 nM (input ligand: FMN 200 uM), 53.7 nM under setting [1] and 75.1 nM (input ligand: none).

Regarding “AGCUAGUACCGAGGAUAUACAUACAUGAGGAUCACCCAUGUAUACAUGAAUAAAUGAGACUACAUGUAGAAGGCGGUACUAGCA [Mat - Same State NG 2 - JL mod - D47] (Eterna round: R96, puzzle: Same State NG 2)”, the “apparent KD of MS2 coat protein” value under setting [1] is 48.8 nM.

In the case of “AGCUAGUACCGAGGAUAUACAUACAUGAGGAUCACCCAUGUAUACAUGAAUAUAUGAGACUACAUGUAGAAGGCGGUACUAGCA [Mat - Same State NG 2 - JL mod - D46] (Eterna round: R96, puzzle: Same State NG 2)”, the “apparent KD of MS2 coat protein” value reads like this: (input ligand: FMN 200 uM) 16.2 nM; under setting [1], 42 nM; (input ligand: none) 60.5 nM.

Consider “AGCUAGUACCGAGGAUAUACGUACAUGAGGAUCACCCAUGUAUACAUGAUUUAAUGAGACUACAUGUAGAAGGCGGUACUAGCA [JL SSNG2 1.24] (Eterna round: R96, puzzle: Same State NG 2)”, for which the “apparent KD of MS2 coat protein” value is, setting by setting: (input ligand: FMN 200 uM) 12.4 nM; under setting [1], 39 nM; (input ligand: none) 53.7 nM.

In the case of “AGCUAGUACCGAGGAUAUACUUACAUGAGGACUACCCAUGUAUACAUGGUUCAAUAGGACUACAUGUAGAAGGCGGUACUAGCA [jandersonlee JLSSNG2 1.24 1FMN F5CU+F7U.1] (Eterna round: R96, puzzle: Same State NG 2)”, the “apparent KD of MS2 coat protein” value (input ligand: FMN 200 uM) was found to be 595 nM, the “apparent KD of MS2 coat protein” value under setting [1] worked out at 26.1 nM and the “apparent KD of MS2 coat protein” value (input ligand: none) was found to be 75.6 nM.

Consider “AGCUAGUACGAAGGAUAUACAAACAUGAGGAUCACCCAUGUAUACAUGGUUAGAUGUGACUACAUGUAGAAGGUCGUACUAGCA [SameState NG2 #15] (Eterna round: R96, puzzle: Same State NG 2)”, for which the “apparent KD of MS2 coat protein” value was determined as 225 nM (input ligand: FMN 200 uM), 331 nM under setting [1] and 443 nM (input ligand: none).

In the case of “AGCUAUUAAUCAGGAUAUAGUGACAUGAGGAUCACCCAUGUAUUGAUGAUGAAAUGUGGUCGCCGCUAGAAGGGAUUACUAACA [SameState NG2 #45] (Eterna round: R96, puzzle: Same State NG 2)”, the “apparent KD of MS2 coat protein” value reads like this: (input ligand: FMN 200 uM) 75.1 nM; under setting [1], 27.7 nM; (input ligand: none) 34 nM.

The values are drawn from the supplement of paper PMC9170038.
